Test results published in publication doi:10.1101/245167 (bioRxiv, 2018).

B1: Ska3 (as subunit of the wild-type Ska complex) (natural protein)
chain: MDPIRSFCGKLRSLASTLDCETARLQRALDGEESDFEDYPMRILYDLHSEVQTLKDDVNILLDKARLENQEGIDFIKATKVLMEKNSMDIMKIREYFQKYGYSPRVKKNSVHEQEAINSDPELSNCENFQKTDVKDDLSDPPVASSCISEKSPRSPQLSDFGLERYIVSQVLPNPPQAVNNYKEEPVIVTPPTKQSLVKVLKTPKCALKMDDFECVTPKLEHFGISEYTMCLNEDYTMGLKNARNNKSEEAIDTESRLNDNVFATPSPIIQQLEKSDAEYTNSPLVPTFCTPGLKIPSTKNSIALVSTNYPLSKTNSSSNDLEVEDRTSLVLNSDTCFENLTDPSSPTISSYENLLRTPTPPEVTKIPEDILQLLSKYNSNLATPIAIKAVPPSKRFLKHGQNIRDVSNKEN
B2: Ska complex^(Ska1 ΔMTBD) (full length Ska2 and Ska3 with Ska1 residues 1-131), without His-tag (complex)
chain 1: MASSDLEQLCSHVNEKIGNIKKTLSLRNCGQEPTLKTVLNKIGDEIIVINELLNKLELEIQYQEQTNNSLKELCESLEEDYKDIEHLKENVPSHLPQVTVTQSCVKGSDLDPEEPIKVEEPEPVKKPPKEQ
chain 2: MEAEVDKLELMFQKAESDLDYIQYRLEYEIKTNHPDSASEKNPVTLLKELSVIKSRYQTLYARFKPVAVEQKESKSRICATVKKTMNMIQKLQKQTDLELSPLTKEEKTAAEQFKFHMPDL
chain 3: B1 chain
B3: Spc24-His (as subunit of the wild-type Ndc80 complex) (natural protein)
chain: MAAFRDIEEVSQGLLSLLGANRAEAQQRRLLGRHEQVVERLLETQDGAEKQLREILTMEKEVAQSLLNAKEQVHQGGVELQQLEAGLQEAGEEDTRLKASLLQLTRELEELKEIEADLERQEKEVDEDTTVTIPSAVYVAQLYHQVSKIEWDYECEPGMVKGIHHGPSVAQPIHLDSTQLSRKFISDYLWSLVDTEW
B4: Spc25 (as subunit of the wild-type Ndc80 complex) (natural protein)
chain: MVEDELALFDKSINEFWNKFKSTDTSCQMAGLRDTYKDSIKAFAEKLSVKLKEEERMVEMFLEYQNQISRQNKLIQEKKDNLLKLIAEVKGKKQELEVLTANIQDLKEEYSRKKETISTANKANAERLKRLQKSADLYKDRLGLEIRKIYGEKLQFIFTNIDPKNPESPFMFSLHLNEARDYEVSDSAPHLEGLAEFQENVRKTNNFSAFLANVRKAFTATVYN

How the values were obtained:
Experiment in all cases: cross-linking
[1] = biological target: T1, Nuf2 (as subunit of the wild-type Ndc80 complex) (human, UniProt Q9BZD4 1-464)
T1 sequence: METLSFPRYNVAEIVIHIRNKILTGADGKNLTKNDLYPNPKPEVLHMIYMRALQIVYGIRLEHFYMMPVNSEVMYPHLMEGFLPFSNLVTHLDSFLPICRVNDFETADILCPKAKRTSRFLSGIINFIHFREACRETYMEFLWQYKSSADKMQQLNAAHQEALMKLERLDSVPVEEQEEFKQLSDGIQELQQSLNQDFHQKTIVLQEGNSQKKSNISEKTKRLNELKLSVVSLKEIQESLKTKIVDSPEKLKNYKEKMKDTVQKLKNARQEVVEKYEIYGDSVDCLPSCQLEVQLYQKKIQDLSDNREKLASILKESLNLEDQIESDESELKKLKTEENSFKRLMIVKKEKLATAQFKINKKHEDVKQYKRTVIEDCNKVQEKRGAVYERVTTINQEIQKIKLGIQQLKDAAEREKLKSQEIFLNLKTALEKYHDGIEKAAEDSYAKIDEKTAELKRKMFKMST

[2] = biological target: T2, Hec1 (as subunit of the wild-type Ndc80 complex) (human, UniProt O14777 1-642)
T2 sequence: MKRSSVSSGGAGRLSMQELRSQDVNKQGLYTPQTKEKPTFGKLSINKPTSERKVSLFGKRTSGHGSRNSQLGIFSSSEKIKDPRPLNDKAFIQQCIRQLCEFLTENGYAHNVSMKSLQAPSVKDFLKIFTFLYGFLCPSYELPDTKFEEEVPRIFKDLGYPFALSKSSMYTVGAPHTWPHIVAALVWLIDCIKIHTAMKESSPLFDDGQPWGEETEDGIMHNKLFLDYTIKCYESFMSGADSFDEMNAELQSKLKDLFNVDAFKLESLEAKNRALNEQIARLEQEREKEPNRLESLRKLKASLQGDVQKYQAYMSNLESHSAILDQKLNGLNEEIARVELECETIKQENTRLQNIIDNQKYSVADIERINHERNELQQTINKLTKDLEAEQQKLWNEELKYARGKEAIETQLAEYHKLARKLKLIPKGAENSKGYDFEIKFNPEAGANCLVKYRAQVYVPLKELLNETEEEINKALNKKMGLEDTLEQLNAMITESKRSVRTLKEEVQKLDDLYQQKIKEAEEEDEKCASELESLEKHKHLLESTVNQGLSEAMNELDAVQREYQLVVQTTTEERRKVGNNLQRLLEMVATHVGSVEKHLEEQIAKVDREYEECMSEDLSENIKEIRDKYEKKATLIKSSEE

[3] = biological target: human Ndc80 complex (Hec1, Nuf2, Spc24-His, Spc25), wild type (human, UniProt O14777;Q9BZD4;Q8NBT2;Q9HBM1)
[4] = biological target: B1

B1: binds [1]; binds [2].

B2: binds [3].

B3: binds [4].

B4: binds [4].
